Reference: US20110217695A1

Molecular target: IGF1R (on MCF-7 cells) (UniProt P08069)
Assay: cell-based or functional assay

Sequence of UniProt P08069 (P08069 31-1367 limits assumed): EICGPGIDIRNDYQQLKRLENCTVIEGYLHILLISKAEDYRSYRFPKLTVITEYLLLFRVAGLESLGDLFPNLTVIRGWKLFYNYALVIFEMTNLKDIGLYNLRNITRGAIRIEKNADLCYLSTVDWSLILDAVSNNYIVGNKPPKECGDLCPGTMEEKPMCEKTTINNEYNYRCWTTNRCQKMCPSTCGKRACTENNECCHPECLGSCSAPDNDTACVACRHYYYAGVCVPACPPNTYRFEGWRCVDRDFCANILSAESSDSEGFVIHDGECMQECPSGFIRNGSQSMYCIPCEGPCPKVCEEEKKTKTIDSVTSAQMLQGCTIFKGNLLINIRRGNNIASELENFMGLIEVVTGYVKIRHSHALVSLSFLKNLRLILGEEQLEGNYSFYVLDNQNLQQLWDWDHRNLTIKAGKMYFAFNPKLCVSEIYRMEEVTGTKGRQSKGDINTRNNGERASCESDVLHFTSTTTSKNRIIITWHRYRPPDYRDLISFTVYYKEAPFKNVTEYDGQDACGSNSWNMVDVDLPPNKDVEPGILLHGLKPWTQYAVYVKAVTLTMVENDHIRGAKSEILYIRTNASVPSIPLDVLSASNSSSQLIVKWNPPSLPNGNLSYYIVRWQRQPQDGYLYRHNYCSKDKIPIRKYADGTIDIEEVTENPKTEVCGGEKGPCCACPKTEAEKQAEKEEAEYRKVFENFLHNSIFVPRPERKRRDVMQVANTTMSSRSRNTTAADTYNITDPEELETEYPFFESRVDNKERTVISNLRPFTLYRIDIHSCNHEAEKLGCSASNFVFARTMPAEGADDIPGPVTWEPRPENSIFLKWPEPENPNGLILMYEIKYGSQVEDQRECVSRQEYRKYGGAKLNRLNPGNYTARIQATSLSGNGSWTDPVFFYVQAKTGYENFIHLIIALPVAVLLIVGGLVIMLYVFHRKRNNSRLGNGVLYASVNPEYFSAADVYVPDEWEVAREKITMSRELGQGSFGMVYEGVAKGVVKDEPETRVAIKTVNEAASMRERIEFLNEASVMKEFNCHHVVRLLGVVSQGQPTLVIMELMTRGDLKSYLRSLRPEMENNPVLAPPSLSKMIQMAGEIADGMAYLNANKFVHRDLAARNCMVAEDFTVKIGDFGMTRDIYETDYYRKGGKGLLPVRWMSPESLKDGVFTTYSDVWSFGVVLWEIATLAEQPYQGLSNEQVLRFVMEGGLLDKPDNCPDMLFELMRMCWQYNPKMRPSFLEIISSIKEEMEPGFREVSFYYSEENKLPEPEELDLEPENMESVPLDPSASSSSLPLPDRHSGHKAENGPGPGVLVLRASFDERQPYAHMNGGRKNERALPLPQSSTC

- % Inhibition, KIRA assay (IGF-I-stimulated receptor phosphorylation in MCF-7 cells), at 0.01 nM Ab (first row): -3.26%
- % Inhibition, KIRA assay (IGF-I-stimulated receptor phosphorylation in MCF-7 cells), at 0.01 nM Ab (second row): -0.34%
- % Inhibition, KIRA assay (IGF-I-stimulated receptor phosphorylation in MCF-7 cells), at 0.03 nM Ab: -3.18%
- % Inhibition, KIRA assay (IGF-I-stimulated receptor phosphorylation in MCF-7 cells), at 0.05 nM Ab: 0.87%
- % Inhibition, KIRA assay (IGF-I-stimulated receptor phosphorylation in MCF-7 cells), at 0.10 nM Ab: 3.82%
- % Inhibition, KIRA assay (IGF-I-stimulated receptor phosphorylation in MCF-7 cells), at 0.21 nM Ab: 10.1%
- % Inhibition, KIRA assay (IGF-I-stimulated receptor phosphorylation in MCF-7 cells), at 0.42 nM Ab: 18%
- % Inhibition, KIRA assay (IGF-I-stimulated receptor phosphorylation in MCF-7 cells), at 0.83 nM Ab: 39.4%
- % Inhibition, KIRA assay (IGF-I-stimulated receptor phosphorylation in MCF-7 cells), at 1.67 nM Ab: 40.5%
- % Inhibition, KIRA assay (IGF-I-stimulated receptor phosphorylation in MCF-7 cells), at 3.34 nM Ab: 54.6%
- % Inhibition, KIRA assay (IGF-I-stimulated receptor phosphorylation in MCF-7 cells), at 6.67 nM Ab: 69.6%
B1: 19D12 antibody (purified antibody obtained from 19D12 hybridoma) (antibody, from a related filing, V domains shown)
VH: EVQLVQSGGGLVHPGGSLRLSCAASGFTFSSFAMHWVRQAPGKGLEWISVIDTRGATYYADSVKGRFTISRDNAKNSLYLQMNSLRAEDMAVYYCARLGNFYYGMDVWGQGTTVTVSS
VL: EIVLTQVPDFQSVTPKEKVTITCRASQSIGSSLHWYQQKPDQSPKLLIKYASQSLSGVPSRFSGSGSGTDFTLTINSLEAEDAAAYYCHQSSRLPHTFGGGTKVEIKR
